These results are taken from PMC6555819, “Comprehensive study of nuclear receptor DNA binding provides a revised framework for understanding receptor specificity”.

Data set [1] concerns the target THRa:RXRa (Homo sapiens, UniProt P10827;P19793 full;full). The data set can be described thus: no ligand; PBM; 90 nM : 90 nM RXRa; PBS pH 7.4, 2% milk, 0.02% Triton X-100, 1 mM DTT, BSA, 0.4 mg/ml salmon testes DNA. Particulars: tags: His kept;His cleaved; copies: 1;1; label: surface-attached array probe.
Data set [2] has as its target LXRa:RXRa (Homo sapiens, UniProt Q13133;P19793 full;full). The data set can be described thus: no ligand; PBM; 270 nM : 90 nM RXRa; PBS pH 7.4, 2% milk, 0.02% Triton X-100, 1 mM DTT, BSA, 0.4 mg/ml salmon testes DNA. Particulars: tags: His kept;His cleaved; copies: 1;1; label: surface-attached array probe. The procedure, abridged:
(§1)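 Antibodies against each partner of ligand-free nuclear receptor dimers (one per run) detected binding on custom Agilent 4×180K protein-binding microarrays after 1 h incubation. The double-stranded probes had 34-nt variable regions carrying direct-repeat seeds, single-nucleotide variants, half-site ablations and random human genomic background sequences. Binding z-scores, from regression-normalized fluorescence, use the random background probes as reference.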

The target of data set [3] is PPARa:RXRa (Homo sapiens, UniProt Q07869;P19793 full;full). The description is as above. Particulars: tags: GST kept;His cleaved; copies: 1;1; label: surface-attached array probe. A digest of the protocol:
as §1

Data set [4] addresses FXR:RXRa (Homo sapiens, UniProt Q96RI1;P19793 full;full). Described as above. Particulars: tags: His kept;His cleaved; copies: 1;1; label: surface-attached array probe. The procedure, abridged:
as §1

Data set [5] concerns the target RXRa (Homo sapiens, UniProt P19793). The experiment in a line: no ligand; PBM; 180 nM; PBS pH 7.4, 2% milk, 0.02% Triton X-100, 1 mM DTT, BSA, 0.4 mg/ml salmon testes DNA. To be noted: tags: His cleaved; chain copies: 2; label: surface-attached array probe.
Data set [6] has as its target RARg:RXRa (Homo sapiens, UniProt P13631;P19793 full;full). The data set can be described thus: no ligand; PBM; 270 nM : 90 nM RXRa; PBS pH 7.4, 2% milk, 0.02% Triton X-100, 1 mM DTT, BSA, 0.4 mg/ml salmon testes DNA. To be noted: tags: His kept;His cleaved; copies: 1;1; label: surface-attached array probe. A digest of the protocol:
as §1

For data set [7], the target named is RARb:RXRa (Homo sapiens, UniProt P10826;P19793 full;full). Described as above. To be noted: tags: His kept;His cleaved; copies: 1;1; label: surface-attached array probe. A digest of the protocol: as §1
Chain of RARb:RXRa (P10826 whole entry, chain 1 of 2): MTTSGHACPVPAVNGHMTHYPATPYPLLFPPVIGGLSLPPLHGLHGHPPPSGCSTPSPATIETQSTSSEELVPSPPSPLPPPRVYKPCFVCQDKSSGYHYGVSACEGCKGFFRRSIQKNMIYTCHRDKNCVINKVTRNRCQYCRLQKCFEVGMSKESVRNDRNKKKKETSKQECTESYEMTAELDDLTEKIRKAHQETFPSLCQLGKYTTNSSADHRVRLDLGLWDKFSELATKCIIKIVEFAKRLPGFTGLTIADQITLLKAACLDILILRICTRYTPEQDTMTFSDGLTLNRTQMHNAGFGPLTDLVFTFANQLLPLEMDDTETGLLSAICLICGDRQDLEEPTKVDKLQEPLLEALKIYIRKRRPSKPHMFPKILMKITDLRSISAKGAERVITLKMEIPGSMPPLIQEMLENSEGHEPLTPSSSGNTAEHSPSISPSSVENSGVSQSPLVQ
Chain of RARb:RXRa (P19793 whole entry, chain 2 of 2): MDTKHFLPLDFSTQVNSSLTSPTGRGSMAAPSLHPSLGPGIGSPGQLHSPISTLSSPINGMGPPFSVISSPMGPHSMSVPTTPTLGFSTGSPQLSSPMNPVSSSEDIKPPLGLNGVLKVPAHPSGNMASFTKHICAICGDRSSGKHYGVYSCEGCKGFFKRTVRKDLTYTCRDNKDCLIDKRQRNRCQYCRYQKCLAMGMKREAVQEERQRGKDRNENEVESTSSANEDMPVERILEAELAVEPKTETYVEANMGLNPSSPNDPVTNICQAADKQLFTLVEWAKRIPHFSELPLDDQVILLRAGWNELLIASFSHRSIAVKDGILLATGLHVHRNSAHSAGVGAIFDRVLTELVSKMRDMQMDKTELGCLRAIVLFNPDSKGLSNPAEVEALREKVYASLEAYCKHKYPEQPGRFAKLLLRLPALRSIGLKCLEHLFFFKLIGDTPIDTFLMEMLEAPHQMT
Data set [8] concerns the target LXRb:RXRa (Homo sapiens, UniProt P55055;P19793 full;full). The data set is described as above. To be noted: tags: His kept;His cleaved; copies: 1;1; label: surface-attached array probe. The procedure, abridged: as §1
In data set [9] the target is VDR:RXRa (Homo sapiens, UniProt P11473;P19793 full;full). The data set is described as above. Particulars: tags: His kept;His cleaved; copies: 1;1; label: surface-attached array probe. A digest of the protocol:
as §1

Chain of PPARa:RXRa (Q07869 whole entry, chain 1 of 2): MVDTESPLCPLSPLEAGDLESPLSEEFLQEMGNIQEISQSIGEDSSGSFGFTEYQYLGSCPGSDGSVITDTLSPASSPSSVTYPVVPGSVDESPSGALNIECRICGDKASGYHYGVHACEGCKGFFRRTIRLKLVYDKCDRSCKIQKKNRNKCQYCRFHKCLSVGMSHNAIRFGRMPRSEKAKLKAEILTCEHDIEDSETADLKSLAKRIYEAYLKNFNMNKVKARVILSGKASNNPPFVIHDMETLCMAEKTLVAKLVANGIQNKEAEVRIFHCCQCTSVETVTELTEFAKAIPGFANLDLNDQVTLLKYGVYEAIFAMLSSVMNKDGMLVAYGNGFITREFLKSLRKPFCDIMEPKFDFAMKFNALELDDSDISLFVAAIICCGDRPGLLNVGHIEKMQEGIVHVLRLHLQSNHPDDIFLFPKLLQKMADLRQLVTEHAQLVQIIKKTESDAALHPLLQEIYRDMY
Chain of PPARa:RXRa (P19793 whole entry, chain 2 of 2): as the sequence (P19793 whole entry, chain 2 of 2) above
Chain of RXRa (P19793 whole entry): as the sequence (P19793 whole entry, chain 2 of 2) above
Chain of LXRb:RXRa (P55055 whole entry, chain 1 of 2): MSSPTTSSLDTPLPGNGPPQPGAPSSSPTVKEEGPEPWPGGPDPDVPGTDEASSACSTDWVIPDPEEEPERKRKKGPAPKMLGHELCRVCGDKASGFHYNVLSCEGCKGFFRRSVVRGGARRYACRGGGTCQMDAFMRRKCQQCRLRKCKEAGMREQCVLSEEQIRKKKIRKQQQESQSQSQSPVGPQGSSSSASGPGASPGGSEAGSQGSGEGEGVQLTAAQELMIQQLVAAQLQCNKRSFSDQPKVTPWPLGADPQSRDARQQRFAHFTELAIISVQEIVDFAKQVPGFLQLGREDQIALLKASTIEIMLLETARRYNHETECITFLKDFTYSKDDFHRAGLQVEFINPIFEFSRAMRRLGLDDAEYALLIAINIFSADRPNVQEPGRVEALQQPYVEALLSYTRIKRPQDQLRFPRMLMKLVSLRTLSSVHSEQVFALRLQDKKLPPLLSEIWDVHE
Chain of LXRb:RXRa (P19793 whole entry, chain 2 of 2): as the sequence (P19793 whole entry, chain 2 of 2) above
Chain of RARg:RXRa (P13631 whole entry, chain 1 of 2): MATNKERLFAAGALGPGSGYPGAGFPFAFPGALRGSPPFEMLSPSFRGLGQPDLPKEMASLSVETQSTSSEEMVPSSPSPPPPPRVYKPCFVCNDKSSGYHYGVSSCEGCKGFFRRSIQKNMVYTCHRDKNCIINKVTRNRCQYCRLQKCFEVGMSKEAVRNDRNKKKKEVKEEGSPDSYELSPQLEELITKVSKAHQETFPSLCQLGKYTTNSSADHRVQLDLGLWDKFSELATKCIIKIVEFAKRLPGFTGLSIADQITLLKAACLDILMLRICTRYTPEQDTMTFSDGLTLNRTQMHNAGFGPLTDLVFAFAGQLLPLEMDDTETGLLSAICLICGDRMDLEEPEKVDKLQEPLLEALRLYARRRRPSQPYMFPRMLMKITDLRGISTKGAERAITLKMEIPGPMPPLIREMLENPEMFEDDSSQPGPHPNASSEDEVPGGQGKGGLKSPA
Chain of RARg:RXRa (P19793 whole entry, chain 2 of 2): as the sequence (P19793 whole entry, chain 2 of 2) above
Chain of THRa:RXRa (P10827 other isoform, or with tags, fused parts or gaps, chain 1 of 2): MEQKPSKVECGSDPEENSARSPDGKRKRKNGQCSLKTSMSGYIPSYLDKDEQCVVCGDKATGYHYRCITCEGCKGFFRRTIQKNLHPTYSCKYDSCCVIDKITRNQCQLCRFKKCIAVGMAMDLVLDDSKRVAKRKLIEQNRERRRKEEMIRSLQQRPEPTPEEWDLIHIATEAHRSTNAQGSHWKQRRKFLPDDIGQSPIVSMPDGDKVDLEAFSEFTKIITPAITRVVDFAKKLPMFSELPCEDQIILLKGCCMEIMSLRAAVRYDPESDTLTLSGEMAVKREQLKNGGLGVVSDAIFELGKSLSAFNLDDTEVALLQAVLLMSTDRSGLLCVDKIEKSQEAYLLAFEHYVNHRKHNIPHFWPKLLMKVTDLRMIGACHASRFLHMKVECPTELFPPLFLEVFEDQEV
Chain of THRa:RXRa (P19793 whole entry, chain 2 of 2): as the sequence (P19793 whole entry, chain 2 of 2) above
Chain of LXRa:RXRa (Q13133 whole entry, chain 1 of 2): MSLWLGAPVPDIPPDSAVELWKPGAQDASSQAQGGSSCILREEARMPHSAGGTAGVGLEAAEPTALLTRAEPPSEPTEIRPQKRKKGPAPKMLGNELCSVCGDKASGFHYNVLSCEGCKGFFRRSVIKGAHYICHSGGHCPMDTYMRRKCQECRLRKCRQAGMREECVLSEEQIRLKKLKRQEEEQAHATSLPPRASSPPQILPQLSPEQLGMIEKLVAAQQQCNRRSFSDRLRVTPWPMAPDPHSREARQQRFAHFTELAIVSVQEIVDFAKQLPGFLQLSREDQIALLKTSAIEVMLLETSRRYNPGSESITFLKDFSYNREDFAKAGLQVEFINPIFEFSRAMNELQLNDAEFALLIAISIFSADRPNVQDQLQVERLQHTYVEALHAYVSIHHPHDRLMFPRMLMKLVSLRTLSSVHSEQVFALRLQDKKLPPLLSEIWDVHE
Chain of LXRa:RXRa (P19793 whole entry, chain 2 of 2): as the sequence (P19793 whole entry, chain 2 of 2) above
Chain of FXR:RXRa (Q96RI1 whole entry, chain 1 of 2): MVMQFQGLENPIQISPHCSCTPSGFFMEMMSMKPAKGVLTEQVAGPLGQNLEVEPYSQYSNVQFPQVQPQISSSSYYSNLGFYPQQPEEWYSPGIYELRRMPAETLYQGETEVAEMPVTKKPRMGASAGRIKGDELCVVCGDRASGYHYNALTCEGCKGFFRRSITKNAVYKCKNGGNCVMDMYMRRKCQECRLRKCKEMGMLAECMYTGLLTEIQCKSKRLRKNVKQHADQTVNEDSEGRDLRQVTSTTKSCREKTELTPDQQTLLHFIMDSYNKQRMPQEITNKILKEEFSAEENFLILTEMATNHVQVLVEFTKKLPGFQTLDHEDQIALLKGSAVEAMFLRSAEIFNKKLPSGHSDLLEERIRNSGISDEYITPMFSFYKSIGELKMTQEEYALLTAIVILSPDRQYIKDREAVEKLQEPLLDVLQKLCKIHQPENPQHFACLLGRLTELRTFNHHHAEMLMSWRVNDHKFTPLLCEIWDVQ
Chain of FXR:RXRa (P19793 whole entry, chain 2 of 2): as the sequence (P19793 whole entry, chain 2 of 2) above
Chain of VDR:RXRa (P11473 whole entry, chain 1 of 2): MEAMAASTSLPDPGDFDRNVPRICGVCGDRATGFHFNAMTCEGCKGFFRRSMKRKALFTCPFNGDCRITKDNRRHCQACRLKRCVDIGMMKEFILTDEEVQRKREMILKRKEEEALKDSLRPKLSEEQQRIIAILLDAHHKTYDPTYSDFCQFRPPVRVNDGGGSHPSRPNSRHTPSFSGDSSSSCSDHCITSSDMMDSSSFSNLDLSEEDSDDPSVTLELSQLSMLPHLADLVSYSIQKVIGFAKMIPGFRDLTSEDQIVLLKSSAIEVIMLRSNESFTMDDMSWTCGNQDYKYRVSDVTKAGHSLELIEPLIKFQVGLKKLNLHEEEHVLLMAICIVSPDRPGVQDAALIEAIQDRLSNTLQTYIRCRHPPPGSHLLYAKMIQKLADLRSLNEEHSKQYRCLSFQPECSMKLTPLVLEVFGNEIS
Chain of VDR:RXRa (P19793 whole entry, chain 2 of 2): as the sequence (P19793 whole entry, chain 2 of 2) above

B1: NRC3_random_hg19_176_o1 (dsDNA)
DNA 1: GCCTGCCTGTGTTGGGACTTTGACTCCACATTTCCCGCGATTGACAGCGTAGAATGAAGG
DNA 2: CCTTCATTCTACGCTGTCAATCGCGGGAAATGTGGAGTCAAAGTCCCAACACAGGCAGGC
Turning to B1, the binding signal in [1] is -0.11 PBM z-score against 500 random probes; in [2], -0.07 PBM z-score against 500 random probes; in [3], 0 PBM z-score against 500 random probes; in [4], -0.18 PBM z-score against 500 random probes.

B2: NRC3_random_hg19_406_o1 (dsDNA)
DNA 1: GCGAAGAACCTCCAAACTGTTCTCCATGGTAGTTGTGCGATTGACAGCGTAGAATGAAGG
DNA 2: CCTTCATTCTACGCTGTCAATCGCACAACTACCATGGAGAACAGTTTGGAGGTTCTTCGC
Turning to B2, the binding signal in [5] was -0.04 PBM z-score against 500 random probes; in data set [1], -0.25 PBM z-score against 500 random probes; in data set [4] it was -0.19 PBM z-score against 500 random probes; in data set [6], -0.45 PBM z-score against 500 random probes.

B3: NRC3_random_hg19_10_o1 (dsDNA)
DNA 1: GCAGCCTCCTGTTGGGTGGTCTGGTCCACCTCCTCAGCGATTGACAGCGTAGAATGAAGG
DNA 2: CCTTCATTCTACGCTGTCAATCGCTGAGGAGGTGGACCAGACCACCCAACAGGAGGCTGC
In the case of B3, the binding signal is -1.64 PBM z-score against 500 random probes in data set [5]; -1.74 PBM z-score against 500 random probes in [1]; -0.72 PBM z-score against 500 random probes in [7]; -0.8 PBM z-score against 500 random probes in data set [4]; -1.37 PBM z-score against 500 random probes in [6].

B4: NRC3_random_hg19_180_o1 (dsDNA)
DNA 1: GCCAAGATAACCAGCTTATCTATCAGTTGGAGCAGAGCGATTGACAGCGTAGAATGAAGG
DNA 2: CCTTCATTCTACGCTGTCAATCGCTCTGCTCCAACTGATAGATAAGCTGGTTATCTTGGC
For the molecule B4, the values for the binding signal in data set [1] and in data set [8] were -0.68 PBM z-score against 500 random probes and -0.9 PBM z-score against 500 random probes, respectively.

B5: NRC3_random_hg19_16_o1 (dsDNA)
DNA 1: GCGTTGTATCGTGTTATGTATGAGAGTCAGGATCTTGCGATTGACAGCGTAGAATGAAGG
DNA 2: CCTTCATTCTACGCTGTCAATCGCAAGATCCTGACTCTCATACATAACACGATACAACGC
In the case of B5, the binding signal in data set [1] was 0.16 PBM z-score against 500 random probes; in [8], 0.41 PBM z-score against 500 random probes.

B6: NRC3_wobSeed109_DR4_G25A_o1 (dsDNA)
DNA 1: GCCGTCCAAGGTCATAGGAGGTCAATGAAGACAGATGCGATTGACAGCGTAGAATGAAGG
DNA 2: CCTTCATTCTACGCTGTCAATCGCATCTGTCTTCATTGACCTCCTATGACCTTGGACGGC
As to B6, the binding signal in [1] was 5.65 PBM z-score against 500 random probes; in data set [7], 5.71 PBM z-score against 500 random probes; in data set [3], 6.49 PBM z-score against 500 random probes; in data set [8], 7.06 PBM z-score against 500 random probes.

B7: NRC3_wobSeed109_DR4_G17T_o1 (dsDNA)
DNA 1: GCCGTCCAAGGTCATATGAGGTCAGTGAAGACAGATGCGATTGACAGCGTAGAATGAAGG
DNA 2: CCTTCATTCTACGCTGTCAATCGCATCTGTCTTCACTGACCTCATATGACCTTGGACGGC
For B7, the figures for the binding signal in [1] and in [2] were 5.58 PBM z-score against 500 random probes and 7.97 PBM z-score against 500 random probes, respectively.

B8: NRC3_random_hg19_397_o1 (dsDNA)
DNA 1: GCGGTGTCGTGTGCCTGTGATCCCAGCTACGCAGGCGCGATTGACAGCGTAGAATGAAGG
DNA 2: CCTTCATTCTACGCTGTCAATCGCGCCTGCGTAGCTGGGATCACAGGCACACGACACCGC
For B8, the binding signal in data set [5] is -0.17 PBM z-score against 500 random probes; in [1], -0.32 PBM z-score against 500 random probes; in data set [7] it was 0.07 PBM z-score against 500 random probes; in [9], -0.31 PBM z-score against 500 random probes.

B9: NRC3_wobSeed103_DR4_G23C_o1 (dsDNA)
DNA 1: GCGCATATAGGTAATACAAGGTCAAAGTCCGATTGTGCGATTGACAGCGTAGAATGAAGG
DNA 2: CCTTCATTCTACGCTGTCAATCGCACAATCGGACTTTGACCTTGTATTACCTATATGCGC
On to B9, for which the binding signal is 4.92 PBM z-score against 500 random probes in data set [1] and 7 PBM z-score against 500 random probes in data set [2].

B10: NRC3_wobSeed13_DR0_G21C_o1 (dsDNA)
DNA 1: GCCGTCCAAGGTCAAGGTCACTGAAAGAGACTCGAAGCGATTGACAGCGTAGAATGAAGG
DNA 2: CCTTCATTCTACGCTGTCAATCGCTTCGAGTCTCTTTCAGTGACCTTGACCTTGGACGGC
B10: the binding signal in data set [5] is 7.81 PBM z-score against 500 random probes; in [1], 4.85 PBM z-score against 500 random probes; in [7], 5.97 PBM z-score against 500 random probes; in data set [3] it was 6.7 PBM z-score against 500 random probes; in data set [6], 7.34 PBM z-score against 500 random probes.

B11: NRC3_wobSeed37_DR1_G22A_o1 (dsDNA)
DNA 1: GCCGTCCAAGGTCAAAGGTCAATGAAGAGATGACGGGCGATTGACAGCGTAGAATGAAGG
DNA 2: CCTTCATTCTACGCTGTCAATCGCCCGTCATCTCTTCATTGACCTTTGACCTTGGACGGC
B11: the binding signal was 10.7 PBM z-score against 500 random probes in data set [5]; 5.12 PBM z-score against 500 random probes in [1]; 7.52 PBM z-score against 500 random probes in [3]; 7.29 PBM z-score against 500 random probes in data set [8]; 9.11 PBM z-score against 500 random probes in [6].

B12: NRC3_random_hg19_371_o1 (dsDNA)
DNA 1: GCTTAAGGATGGACCATTGGCTAAAGCAATGTCAAAGCGATTGACAGCGTAGAATGAAGG
DNA 2: CCTTCATTCTACGCTGTCAATCGCTTTGACATTGCTTTAGCCAATGGTCCATCCTTAAGC
B12: the binding signal in data set [1] was -0.29 PBM z-score against 500 random probes; in data set [8], -0.56 PBM z-score against 500 random probes.

B13: NRC3_wobSeed101_DR4_C18A_o1 (dsDNA)
DNA 1: GCCCTTACGGGTCACTCAAGGTTATAGCATCGGAGTGCGATTGACAGCGTAGAATGAAGG
DNA 2: CCTTCATTCTACGCTGTCAATCGCACTCCGATGCTATAACCTTGAGTGACCCGTAAGGGC
B13: the binding signal was 5.41 PBM z-score against 500 random probes in data set [1] and 6.18 PBM z-score against 500 random probes in [8].

B14: NRC3_random_hg19_346_o1 (dsDNA)
DNA 1: GCGCCTTCTGCTACAGGGCAAAGGTGGCACACAAAGGCGATTGACAGCGTAGAATGAAGG
DNA 2: CCTTCATTCTACGCTGTCAATCGCCTTTGTGTGCCACCTTTGCCCTGTAGCAGAAGGCGC
Regarding B14, the results for the binding signal in data set [1] and in data set [2] were 0.22 PBM z-score against 500 random probes and 0 PBM z-score against 500 random probes, respectively.

B15: NRC3_wobSeed120_DR4_G20A_o1 (dsDNA)
DNA 1: GCCCGAGTAGGTTACGAGGAGGCATTCAGTGCGAATGCGATTGACAGCGTAGAATGAAGG
DNA 2: CCTTCATTCTACGCTGTCAATCGCATTCGCACTGAATGCCTCCTCGTAACCTACTCGGGC
With B15, the figures for the binding signal in data set [1] and in data set [9] were 0.17 PBM z-score against 500 random probes and 0.09 PBM z-score against 500 random probes, respectively.

B16: NRC3_random_hg19_217_o1 (dsDNA)
DNA 1: GCCTCAAACTCCCTTCTTCAGTTTCTGGTAGATCAAGCGATTGACAGCGTAGAATGAAGG
DNA 2: CCTTCATTCTACGCTGTCAATCGCTTGATCTACCAGAAACTGAAGAAGGGAGTTTGAGGC
On to B16, for which the results for the binding signal in [1], in data set [7] and in [2] were -0.02 PBM z-score against 500 random probes, -0.02 PBM z-score against 500 random probes and 0.47 PBM z-score against 500 random probes, respectively.

B17: NRC3_wobSeed114_DR4_G17T_o1 (dsDNA)
DNA 1: GCAATACAGGGTCATCTTAGGCCAGAGTACGCACAGGCGATTGACAGCGTAGAATGAAGG
DNA 2: CCTTCATTCTACGCTGTCAATCGCCTGTGCGTACTCTGGCCTAAGATGACCCTGTATTGC
With B17, the binding signal in data set [1] is 5.49 PBM z-score against 500 random probes; in data set [2] it was 7.35 PBM z-score against 500 random probes.

B18: NRC3_wobSeed88_DR3_G11T_o1 (dsDNA)
DNA 1: GCTAGCCTAGTTCATGCGGGCCAGTATAGTGTCGGCGCGATTGACAGCGTAGAATGAAGG
DNA 2: CCTTCATTCTACGCTGTCAATCGCGCCGACACTATACTGGCCCGCATGAACTAGGCTAGC
B18: the binding signal was 0.14 PBM z-score against 500 random probes in data set [1], 0.09 PBM z-score against 500 random probes in [2] and 0.41 PBM z-score against 500 random probes in data set [6].

B19: NRC3_wobSeed136_DR5_C24A_o1 (dsDNA)
DNA 1: GCTAGCCTAGGTCATTCAGGGGCAAGTATAGAAAGCGCGATTGACAGCGTAGAATGAAGG
DNA 2: CCTTCATTCTACGCTGTCAATCGCGCTTTCTATACTTGCCCCTGAATGACCTAGGCTAGC
On to B19, for which the binding signal in data set [1] is 5.06 PBM z-score against 500 random probes; in [2] it was 6.65 PBM z-score against 500 random probes; in [6] it was 4.49 PBM z-score against 500 random probes.
